# Measured values reported in the supplement of paper PMC9170038.
# Tested on: MS2 coat protein
# Test: apparent KD of MS2 coat protein; designed switch direction (-1 OFF switch, 1 ON switch): -1; higher = weaker reporter binding
# Outline: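 SNAP-549-labelled MS2 coat protein was titrated, doubling from 0.7 or 1.5 nM to 3 µM, over designed RNA switches transcribed on Illumina chips by stalled E. coli RNA polymerase. Runs were done without input, with 200 uM small-molecule ligand, or with an oligonucleotide input. Apparent KD is the per-design median over clusters of curve-fitted normalised fluorescence.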
# [1] = Eterna round: R95, input ligand: FMN 200 uM
# [2] = Eterna round: R95, input ligand: microRNA oligo, concentration not stated
# [3] = Eterna round: R95, input ligand: none
# [4] = input ligand: microRNA oligo, concentration not stated
Sequence,apparent KD of MS2 coat protein (input ligand: FMN 200 uM) [nM],apparent KD of MS2 coat protein (input ligand: none) [nM],apparent KD of MS2 coat protein [1] [nM],apparent KD of MS2 coat protein [2] [nM],apparent KD of MS2 coat protein [3] [nM],apparent KD of MS2 coat protein [4] [nM]
"CGGAUGUUAGGAUAUUAGUAGUAGUCAGAAAAGACUAUUACUGAGAAGGAACAUGAGGAUCACCCAUGUUUCCG [Mat - Exclusion 4 - Eli Mod - D44] (Eterna round: R97, puzzle: Exclusion 4)",17,15.4,–,–,–,–
"AGUACGAUGCGUGCUGACAUGCGUCGUGCAGCAGGUGAUACAUGAGGAUCACCCAUGUCCUCAUUUGCUCGUCUUGU [Mat - Sensor v3 - Turn-off var 2 - D18] (puzzle: Sensor v3, turn-off variant 2)",–,–,37.2,257,36.1,–
"GAGGCAUGCUGAGGUCCACACAUGAGGAUCACCCAUGUAAUGACAAGCUUUUUCCUCGUCUUAUCGCUAUCGCGUUC [Dilaenla] (Eterna round: R96, puzzle: Sensor v3, turn-off variant 1)",13.1,16.3,–,–,–,22.2
UGGUGGAAGCAGGAUAUGCUAGAAGUGUAGAAUGCAGAAGGGCUAACAUGAGGAUCACCCAUGUAAGAGGUGUU [JR_E6_Sub052] (puzzle: Exclusion 6),–,–,–,296,–,–
"AGAUGUAGAUACCGAUCCUACAUGAGGAUCACCCAUGUAGCUAGACGUGCUCGCGUUGCUCGUCAGACUACCAGUAG [salish99_TOv1_r3_088] (puzzle: Sensor v3, turn-off variant 1)",–,–,279,286,382,–
"CAUCCACAUGAGGAUCACCCAUGUCAGGAUAUUGUACAAACCCAAUCAUAUUGGGCGUCAAGAAGGGACAUUCU [EX1 B.5] (Eterna round: R97, puzzle: Exclusion 1)",22.8,12.4,–,–,–,–
"UAUUUAAGAGGAUAUACAUGAGGAUCACCCAUGUAUAAUAAAAUACAUGAUUUUUUAUGUAGAAGGCUUGGGUA [-19.1, -18.3 kcal, 36% A] (Eterna round: R97, puzzle: Exclusion 3)",72,21.1,–,–,–,–
"GCGGAAAACUUAGGAUAUCAGGGCUGCACAUGAGGAUCACCCAUGUGAUAGCUCUAACGCGGUCCUGAGAAGGGAGAGCCCGGA [Rarasoa] (Eterna round: R96, puzzle: Exclusion NG 2)",94.2,44.7,–,–,–,43.8
"GGAAAUCAUGUAGGAUAUGCGUGGCGAAGCUAUGCAGAAGGACAUGAGGAUCACCCAUGUGCUUCCGUCUGCGUACAGACGGAA [Mat - Exclusion NG 1 - Mod of JL - D20] (Eterna round: R96, puzzle: Exclusion NG 1)",32.3,186,–,–,–,77.9
"GGCAUGCAAGGAUAUACUUGCAGUGAUGUUCGAUAAAUUCUACUUGAGGAUCACCCAAGUAGAAGGUGCAUGCC [Exclusion 2 (Mod4 JL EX2 4.74 Vienna UCT mod of Mamaed)] (Eterna round: R97, puzzle: Exclusion 2)",15.2,27.3,–,–,–,–
"AGUCAAACGGUAGGAUAUCCAUAUCGAGUGACCCUUUCAUAACAUGAGGAUCACCCAUGUCGGUGGGAGAAGGGCCGUAAGGCA [Mat - Exclusion NG 2 - Mod of JL - D70] (Eterna round: R96, puzzle: Exclusion NG 2)",99.6,52.4,–,–,–,43.1
GCAUUGAGUGUGAGGAUAUGCUGGUCAUAAGAUCAGCAGAAGGCACAUGAGGAUCACCCAUGUGAAAACAAUGC [Mat - Exclusion 4 - JL Mod - D66] (puzzle: Brourd's mod of Exclusion 4),–,–,93.1,14.7,19.2,–
"ACAUGUCAUUGAGGAUAUCGCACACAUGAGGAUCACCCAUGUAAACGGAUGCUCUUACGUGGGUUCGAGAAGGCGAUGUACAUU [Ex NG2 #95] (Eterna round: R96, puzzle: Exclusion NG 2)",458,142,–,–,–,112
GCCUUACAUGAGGAUCACCCAUGUCAGGAUAUGUCAGAGUAGGUAAAACACCACUCUAAUAGAAGGGACAUGCA [Diisarlais] (puzzle: Exclusion 1),–,–,–,16.5,–,–
"AAGAUGUGAGGAUAUCACGAGAGCGUCACACGGACGCCCUCUGAGAAGGCACAUGAGGAUCACCCAUGUCCAAA [EX4 A.22] (Eterna round: R97, puzzle: Exclusion 4)",387,65,–,–,–,–
"UGUUGUUCCGAAGGAUAUGUAUGAGGAUCACCCAUAAGAGUUGAUGUACCAUGAGGAUCACCCAUGUAGAAGGUCGGGUUAACU [pwkr exNG2 2xF5 1xFMN.20] (Eterna round: R96, puzzle: Exclusion NG 2)",200,101,–,–,–,52.6

Sequence,apparent KD of MS2 coat protein (input ligand: FMN 200 uM) [nM],apparent KD of MS2 coat protein (input ligand: none) [nM],apparent KD of MS2 coat protein [1] [nM],apparent KD of MS2 coat protein [2] [nM],apparent KD of MS2 coat protein [3] [nM],apparent KD of MS2 coat protein [4] [nM]
"AGAAGUGCCGAGGAUAUCCAGGCAAUCUCGUUCGGAGAAGGCGGCACUUGAGGAUCACCCAAGUGCUCCUAAGA [Islariat] (Eterna round: R97, puzzle: Exclusion 6)",52.1,14.1,–,–,–,–
GCAGGAUAAGUCAGGAUAUACCUAUGGAUACAUAGGUAGAAGGGACAUGAGGAUCACCCAUGUGACUCACCUGC [Fiskers BMX 4 - 62] (puzzle: Brourd's mod of Exclusion 4),–,–,95.6,27.8,27,–
UAAAAGCGGAAGGAUAUGUGUCUAAAGUCUGUAGCAGAAGGUCCGACAUGAGGAUCACCCAUGUGACCUGGUGC [Biatceis] (puzzle: Exclusion 6),–,–,–,10.3,–,–
"GCAGCAACUCUAAUCAAUCCAACAUGAGGAUCACCCAUGUCUCAGGAUAUGGUCUGGAUUACAGGCCAGAAGGGAGAAAGCUGC [Eli exng3 - 046] (Eterna round: R96, puzzle: Exclusion NG 3)",9.07,11.9,–,–,–,7.62
"ACACUGCGAGGAUAUACAUGAGGAUCACCCAUGUGUCGGCAGCCACGGUAGCACUAGUGUAGAAGGCGCAUUAG [EX3 #42] (Eterna round: R97, puzzle: Exclusion 3)",41.1,28.3,–,–,–,–
UUAAUGUGAGGAUAUGGUAAAGAUAGAAUGAUGAAAGAACUCCAGAAGGCACAUGAGGAUCACCCAUGUAGAUG [Mat - Exclusion 4 - Mod of JL - D28] (puzzle: Exclusion 4),–,–,68.3,30.5,42,–
"CGGACACCAGUAGGAUAUGUAGGAUAUGUUGUUGAGGAUCACCCAACAAAUUAAACGACAGAAGGACAGAAGGACUGUUCUCCU [pwkr exNG2 2xFMN 1xF5.2] (Eterna round: R96, puzzle: Exclusion NG 2)",18.6,24.7,–,–,–,14.5
GGUUGGCGAGGAUAUACAUGAGGAUCACCCAUGUGAGAGAAAAAAGUGAGGAAGAAAAGUAGAAGGCGCUGACC [salish99_ex3_r3_048] (puzzle: Exclusion 3),–,–,256,44.6,53.9,–
"UAAAAGCUAGGAUAUACUGGCACACAACUCAUAAAUUCAAGACAUGAGGAUCACCCAUGUAGAAGGAGCAAAUA [EX2 A.3] (Eterna round: R97, puzzle: Exclusion 2)",63.5,23.6,–,–,–,–
"AACCUGAGGCAAAGCUUUAGGUGUACAUGAGGAUCACCCAUGUAGGAUAUGGUAGGCUUUGCUUACCAGAAGGACAUAAUGAUG [Mat - Exclusion NG 3 - Mod of JL - D46] (Eterna round: R96, puzzle: Exclusion NG 3)",92.2,53.3,–,–,–,42
"CUCUCGUGAGGAUAUCUCCGCGAGAAUAAUGUUACACGCGAAGAGAAGGCACAUGAGGAUCACCCAUGUUAAAC [Eternabot (L1) Solution 31] (Eterna round: R97, puzzle: Exclusion 4)",230,54.8,–,–,–,–
"AGUACUAACACGUGUGUGUUAGUACAAUAAGCUUGUGAAACAUGAGGAUCACCCAUGUCCUCAUAAGCUCGUCUUAU [salish99_TOv2_r3_074] (Eterna round: R96, puzzle: Sensor v3, turn-off variant 2)",14.9,17.1,–,–,–,514
"CUCCUCGUGGCGCCUAAACACAUGAGGAUCACCCAUGUACAGGCUUUUUGCCGUCUUAUAAUAAAACCGAGGAUACG [Cezabi] (puzzle: Sensor v3, turn-off variant 1)",–,–,19.1,63.9,21.2,–
"UGAUUGUUUACCAGGUUAUACAUGAGGAUCACCCAUGUAGAUCCUACGUGCGCGUUGUACCGCUCGUCUUAUUCCCA [Sensor-V1 #78] (Eterna round: R97, puzzle: Sensor, turn-off variant 1)",18.3,18.9,–,–,–,–
"UACAUGAGGAUCACCCAUGUUUUGUCGUGUAUGGUAUUUAUCUAGGAUAUCAUUUUAUUUGGUUAUGAGAAGGAGAAUAUUAAU [JMF's solution 92] (Eterna round: R96, puzzle: Exclusion NG 3)",24.1,30.5,–,–,–,22.7
"UAGGUGUAGUUAGGAUAUCGUUGCGAUUAGCUACGAGAAGGAACACAUGAGGAUCACCCAUGUCUACUCAAGAAACGAAAGGAA [6th something] (Eterna round: R96, puzzle: Exclusion NG 1)",29,24.9,–,–,–,22.1
